Reference: the RNAGym collection of RNA variant scans (doi:10.7554/elife.80360)

B1: Twister Ribozyme (parent)
chain: AACACUGCCAAUGCCGGUCCCAAGCCCGGAUAAAAGUGGAGGGGGCGG

Variants of: B1
Assay: self-cleavage, relative activity (ratio to wild type); higher = more cleavage; co-transcriptional

Variant | self-cleavage
AACACAGCCAAUGCCGGUCCCAAGCCCGGAUAAAAGUGGAGGGGGGGG [U6A C46G] | 0.988
AACACUGCCGAUGCCGGUCCCAAUCCCGGAUAAAAGUGGAGGGGGCGG [A10G G24U] | 0.18
AACACUGCCAACGCCGGUCCCAAGCCCGGAUUAAAGUGGAGGGGGCGG [U12C A32U] | 0.835
AACACUGCCAAUGCUGGUCCCAAGCCCGGAUAAAAGUGCAGGGGGCGG [C15U G39C] | 0.146
AACACUGGCAAUGCCGGUCCCAACCCCGGAUAAAAGUGGAGGGGGCGG [C8G G24C] | 0.993
AACACUGCCAAUGCCGUUCCCAAGCCCGAAUAAAAGUGGAGGGGGCGG [G17U G29A] | 0.118
AAAACUGCCAAUGCCGGUCCCAAGCCCGGAUAUAAGUGGAGGGGGCGG [C3A A33U] | 0.203
AACGCUGCCAAUGCCGGUCCCAACCCCGGAUAAAAGUGGAGGGGGCGG [A4G G24C] | 0.0502
AACACUGCCAAUGCCGGUACCAUGCCCGGAUAAAAGUGGAGGGGGCGG [C19A A23U] | 0.114
GACACUGCCAAUGCCGGUCCCAAGCCCGGAUAAAAGUUGAGGGGGCGG [A1G G38U] | 0.211
AACACUACCAAUGCCGGUCCCUAGCCCGGAUAAAAGUGGAGGGGGCGG [G7A A22U] | 0.103
AACACUGCCAAUGCCGGUCCCAAGCCCGUAUAAAAGUGGAGGGGCCGG [G29U G45C] | 0.294
AACACUGCCAAAGUCGGUCCCAAGCCCGGAUAAAAGUGGAGGGGGCGG [U12A C14U] | 1.05
AACACUGCCAAUGCCGGUCCCAAGCCCGAAUAAAAGUGGAGGGGGCGC [G29A G48C] | 1.1
AACAUUGCCAAUGCCGGUCCCAAACCCGGAUAAAAGUGGAGGGGGCGG [C5U G24A] | 0.058
AACACUGCCAAUGCCGGUCCCAAGGCCGGAUAAAAAUGGAGGGGGCGG [C25G G36A] | 0.103
AACACUGCCAAUGACGGUCCCAAGCCCGGAUAAAAGUAGAGGGGGCGG [C14A G38A] | 0.874
AACACUCCCAAUGCCGGACCCAAGCCCGGAUAAAAGUGGAGGGGGCGG [G7C U18A] | 0.0787
AACAGUGCCAAUGCCGGUCCCAAGCCCGGAUAAUAGUGGAGGGGGCGG [C5G A34U] | 0.309
AACACUGCCAAUGCAGGUCCCAAGCCCGGAUAAAAGUGGAGGGGGCGU [C15A G48U] | 0.573
AACACUGCCAAUGCCGGACCCAAGCCCGGAUAAAAUUGGAGGGGGCGG [U18A G36U] | 0.172
AACACUGCCAAUGCCCGUCCCAAGCCCGGAUAAAAGUGAAGGGGGCGG [G16C G39A] | 0.28
AACACUGCCAAUGCCGGUCCCAUGCCAGGAUAAAAGUGGAGGGGGCGG [A23U C27A] | 0.0759
AACACAGCCAAUACCGGUCCCAAGCCCGGAUAAAAGUGGAGGGGGCGG [U6A G13A] | 0.195
AACACUACCAAUGCCGGUCCCAAGCCCGGAUAAAAGUGGAGGCGGCGG [G7A G43C] | 0.123
AACACUGCCAAUGCCGGUCCCAAGCCCGGAUAAAACUGGGGGGGGCGG [G36C A40G] | 0.0963
AACACUGCCAAGGCCGGUCCCAAGGCCGGAUAAAAGUGGAGGGGGCGG [U12G C25G] | 0.486

Variant | self-cleavage
AACACUGCCAAUGCAGGUCCCAAGCCCGGAUAAAAGUGGAAGGGGCGG [C15A G41A] | 0.189
AACACUGCCAAUGCCGGUCCCAAGCCCUGAUAAAAGUUGAGGGGGCGG [G28U G38U] | 0.766
AACACUGCCAACGCCGGUUCCAAGCCCGGAUAAAAGUGGAGGGGGCGG [U12C C19U] | 0.951
AAAACUGCCAAUGCCGGUCCCAUGCCCGGAUAAAAGUGGAGGGGGCGG [C3A A23U] | 0.133
AACGCUGCCAAUGCCGGCCCCAAGCCCGGAUAAAAGUGGAGGGGGCGG [A4G U18C] | 0.58
AACACUGCCAAUGCCGGACCCAAACCCGGAUAAAAGUGGAGGGGGCGG [U18A G24A] | 0.0868
AACACUGCCAAUGCCGGUCCCAAGCCCGGAUAAAAGUGGUGGGUGCGG [A40U G44U] | 0.183
AACACUGCCGAUGCCGGUCCCAAGCCCGGAUAAAAGUGGAGGAGGCGG [A10G G43A] | 0.363
AACACUGCAAAUGUCGGUCCCAAGCCCGGAUAAAAGUGGAGGGGGCGG [C9A C14U] | 0.697
AACACUGCCAAUGCCGGUCCCAAGCCCGGUUAAAAGUGGUGGGGGCGG [A30U A40U] | 0.152
AACACGGCCAAUGCCGGUCACAAGCCCGGAUAAAAGUGGAGGGGGCGG [U6G C20A] | 0.0634
AACACUGCCAAUGCUGGACCCAAGCCCGGAUAAAAGUGGAGGGGGCGG [C15U U18A] | 0.379
AACACUGCCAAUGGCGGUCCCAAGCCCGCAUAAAAGUGGAGGGGGCGG [C14G G29C] | 0.228
ACCACUGCCAAUGCCGGUCCCAAGCCCGGAUAAAAGUUGAGGGGGCGG [A2C G38U] | 0.0613
AACACUGCCAAUGCCGGUCUUAAGCCCGGAUAAAAGUGGAGGGGGCGG [C20U C21U] | 0.119
AACACUGCCAAUGCCGGUCUAAAGCCCGGAUAAAAGUGGAGGGGGCGG [C20U C21A] | 0.115
AACACUGCCAAUGCCGGUCCCAAGCCCGGAUAAAAGUGGAGGGUGGGG [G44U C46G] | 0.728
AACACUGCCAAUGCCGGUCCCAAGCCCGGAUAAACGUGGAGGGGGCAG [A35C G47A] | 0.832
AAAACUGCCAAUGCCGGUCCCAAGCACGGAUAAAAGUGGAGGGGGCGG [C3A C26A] | 0.139
ACCACUGCCAAUGCCGGUCCCAAGCCGGGAUAAAAGUGGAGGGGGCGG [A2C C27G] | 0.0549
AAAACUGCCAAUGCCGGUCUCAAGCCCGGAUAAAAGUGGAGGGGGCGG [C3A C20U] | 0.403
AACACUGCCAAUGCCGGUCGCAAGCCCGGACAAAAGUGGAGGGGGCGG [C20G U31C] | 0.0873
AACACUGCCAAUGCCGGUCCUAAGCCCGGAUAAAAGUGGCGGGGGCGG [C21U A40C] | 0.109
AAAACUGCCAAUGCCGGUCCCAAGCCCGGAUAACAGUGGAGGGGGCGG [C3A A34C] | 0.0676
AACACUGCAAAUGCCGGUCCCAAGCCCGGAUAAAAGUGGAGGGGGCGA [C9A G48A] | 0.357
AACACUGCCAAUAUCGGUCCCAAGCCCGGAUAAAAGUGGAGGGGGCGG [G13A C14U] | 0.8
AACACUGCCAAUGCCGGUCCCAGGCCCGGAUAAAAGUGGAGGAGGCGG [A23G G43A] | 0.0981
